# Results published in article PMC5347340 (2017).
# B1: PGDM1400 (protein)
# chain 1: DFVLTQSPHSLSVTPGESASISCKSSHSLIHGDRNNYLAWYVQKPGRSPQLLIYLASSRASGVPDRFSGSGSDKDFTLKISRVETEDVGTYYCMQGRESPWTFGQGTKVDIKRTVAAPSVFIFPPSDEQLKSGTASVVCLLNNFYPREAKVQWKVDNALQSGNSQESVTEQDSKDSTYSLSSTLTLSKADYEKHKVYACEVTHQGLSSPVTKSFNRGEC
# chain 2: QAQLVQSGPEVRKPGTSVKVSCKAPGNTLKTYDLHWVRSVPGQGLQWMGWISHEGDKKVIVERFKAKVTIDWDRSTNTAYLQLSGLTSGDTAVYYCAKGSKHRLRDYALYDDDGALNWAVDVDYLSNLEFWGQGTAVTVSSASTKGPSVFPLAPSSKSTSGGTAALGCLVKDYFPEPVTVSWNSGALTSGVHTFPAVLQSSGLYSLSSVVTVPSSSLGTQTYICNVNHKPSNTKVDKKVEPKSCD
# Assays:
# [1] = target: BG505 gp140.681.R1-1NOG trimer (HIV-1 BG505, UniProt Q2N0S6); assay: BLI
# [2] = target: BG505 gp140.681.R1-1V6H trimer (HIV-1 BG505, UniProt Q2N0S6); assay: BLI
binder,measurement,setting,value
B1,Kd,[1],4.7 nM
same,Kd,[2],5.1 nM
